Earlier results in patent publication US20200085776A1, “Methods of Reducing C-Reactive Protein and/or Treating Cardiovascular Disease” (CARDAX, INC., priority 2018, published 2020).

Legend:
cardiovascular events = settings: 15-20 mg/week vs. placebo; cited from earlier work
vascular events = settings: 20 mg/D; patients who achieved a reduction in CRP<2.0; cited from earlier work
IL-1β = biological target: T1, IL-1β (Homo sapiens, UniProt P01584); settings: cited from earlier work
T1 construct: host or cells: human trial patients (endogenous IL-1β)

[1] = subjects with a reduction of CRP<2.0 mg/L, regardless of dose

In the case of `CN(Cc1cnc2nc(N)nc(N)c2n1)c1ccc(C(=O)N[C@@H](CCC(=O)O)C(=O)O)cc1` [methotrexate], the “cardiovascular events compared to placebo” value (cardiovascular events) is given as “did not result in fewer cardiovascular events” and the “effect on levels of IL-1β, IL-6, CRP” value (cardiovascular events) is given as “did not reduce levels of IL-1β, IL-6, or CRP”.
In the case of `CC(C)c1nc(N(C)S(C)(=O)=O)nc(-c2ccc(F)cc2)c1/C=C/[C@@H](O)C[C@@H](O)CC(=O)O` [rosuvastatin], the “reduction in vascular events” value (vascular events) is given as 62%.
In the case of “canakinumab: monoclonal antibody that targets IL-1β (printed IL-113)”, the deaths from infection (IL-1β; active treatment groups, mostly tuberculosis) is listed as “more deaths from infection”, the “effect on CRP, IL-6 and lipids” value (IL-1β; patients with active treatment) is listed as “a reduction in CRP and IL-6, with no change in lipids” and the “reduction in cardiovascular death and all-cause mortality” value (IL-1β; [1]) is listed as 31%. The “reduction in the primary end point (composite of myocardial infarction, stroke, or cardiovascular death)” value (IL-1β; [1]) was 25%.
